T1: 6Hishub alone (clathrin hub, bovine clathrin heavy chain aa1074-1675, no bound LCb) (bovine, UniProt P49951 1074-1675)
T1 sequence (looked up): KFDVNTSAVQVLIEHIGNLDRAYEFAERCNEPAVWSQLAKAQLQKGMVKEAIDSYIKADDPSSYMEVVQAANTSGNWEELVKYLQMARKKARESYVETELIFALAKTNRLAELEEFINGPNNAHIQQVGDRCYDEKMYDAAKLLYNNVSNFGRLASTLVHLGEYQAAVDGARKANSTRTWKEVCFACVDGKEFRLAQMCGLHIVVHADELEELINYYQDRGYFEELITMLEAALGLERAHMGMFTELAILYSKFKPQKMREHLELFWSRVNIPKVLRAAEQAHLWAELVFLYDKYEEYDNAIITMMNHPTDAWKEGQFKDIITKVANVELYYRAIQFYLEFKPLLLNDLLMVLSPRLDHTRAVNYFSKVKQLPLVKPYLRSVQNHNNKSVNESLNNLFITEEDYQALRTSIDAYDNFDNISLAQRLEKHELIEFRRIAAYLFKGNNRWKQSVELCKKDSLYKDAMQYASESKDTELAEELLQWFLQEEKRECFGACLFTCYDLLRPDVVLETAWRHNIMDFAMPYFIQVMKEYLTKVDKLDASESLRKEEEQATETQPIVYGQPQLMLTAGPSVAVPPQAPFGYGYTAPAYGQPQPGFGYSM

T2: 6Hishub/6HisLCb (clathrin hub with bound clathrin light chain b) (bovine, UniProt P49951 1074-1675; P04975 1-228)
T2 sequence (looked up) 1: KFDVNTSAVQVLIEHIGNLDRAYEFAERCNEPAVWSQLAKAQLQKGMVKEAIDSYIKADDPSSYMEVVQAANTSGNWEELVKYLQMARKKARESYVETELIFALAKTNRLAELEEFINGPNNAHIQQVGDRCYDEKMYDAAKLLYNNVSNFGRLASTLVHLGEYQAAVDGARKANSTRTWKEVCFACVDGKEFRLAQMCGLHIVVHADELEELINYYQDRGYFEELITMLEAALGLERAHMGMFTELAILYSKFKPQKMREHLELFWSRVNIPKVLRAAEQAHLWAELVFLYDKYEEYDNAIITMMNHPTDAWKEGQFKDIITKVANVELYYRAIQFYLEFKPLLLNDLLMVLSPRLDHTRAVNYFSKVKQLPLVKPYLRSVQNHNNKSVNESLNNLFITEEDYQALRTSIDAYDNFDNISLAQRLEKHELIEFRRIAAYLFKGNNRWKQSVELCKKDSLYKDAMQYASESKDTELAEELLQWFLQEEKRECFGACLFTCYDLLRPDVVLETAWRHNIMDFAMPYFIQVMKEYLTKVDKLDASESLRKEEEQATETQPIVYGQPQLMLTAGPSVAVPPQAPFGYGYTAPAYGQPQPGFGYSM
T2 sequence (looked up) 2: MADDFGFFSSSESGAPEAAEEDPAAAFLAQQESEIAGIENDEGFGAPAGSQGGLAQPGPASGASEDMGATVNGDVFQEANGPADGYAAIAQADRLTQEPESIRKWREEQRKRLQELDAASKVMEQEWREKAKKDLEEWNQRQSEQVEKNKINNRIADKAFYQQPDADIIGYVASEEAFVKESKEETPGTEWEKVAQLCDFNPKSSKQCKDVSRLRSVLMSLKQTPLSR


How the values were obtained:
[1] = target: T1, 6Hishub alone (clathrin hub, bovine …); assay: pull-down; GST or GST-HIP1h on glutathione Sepharose 4B beads; 6HisLCb and hub premixed 3:1 at 4 C for at least 30 min; 0.4 nmol hub alone or 1.9 nmol hub/6HisLCb complex; binding buffer 50 mM Tris, 200 mM KCl, 1 mM EDTA, 1% Triton X-100, 50 mM imidazole, 0.5 mg/ml ovalbumin, pH 8.0; 4 C, 1 hour; Western blot (anti-His, CON.1, anti-GST); conditions: both partners purified
[2] = target: T2, 6Hishub/6HisLCb (clathrin hub with …); assay: as above; conditions: both partners purified

| Binder | binding result [1] | binding result [2] |
| --- | --- | --- |
| 6HisLCb (N-terminally histidine-tagged bovine clathrin light chain b with the neuronal insert) (natural protein, UniProt P04975 1-228, looked up) MADDFGFFSSSESGAPEAAEEDPAAAFLAQQESEIAGIENDEGFGAPAGSQGGLAQPGPASGASEDMGATVNGDVFQEANGPADGYAAIAQADRLTQEPESIRKWREEQRKRLQELDAASKVMEQEWREKAKKDLEEWNQRQSEQVEKNKINNRIADKAFYQQPDADIIGYVASEEAFVKESKEETPGTEWEKVAQLCDFNPKSSKQCKDVSRLRSVLMSLKQTPLSR | binds | – |
| GST-HIP1h (Huntingtin-interacting protein 1, aa370-644), wild type (domain or fragment, human, UniProt O00291-1 370-644, looked up) KDEKDHLIERLYREISGLKAQLENMKTESQRVVLQLKGHVSELEADLAEQQHLRQQAADDCEFLRAELDELRRQREDTEKAQRSLSEIERKAQANEQRYSKLKEKYSELVQNHADLLRKNAEVTKQVSMARQAQVDLEREKKELEDSLERISDQGQRKTQEQLEVLESLKQELATSQRELQVLQGSLETSAQSEANWAAEFAELEKERDSLVSGAAHREEELSALRKELQDTQLKLASTEESMCQLAKDQRKMLLVGSRKAAEQVIQDALNQLEE | – | binds |

Second part, the binder after the results:

| binding result [1] | binding result [2] | Binder |
| --- | --- | --- |
| – | binds | GST-HIP1h (aa370-644) K511E (domain or fragment, human, UniProt O00291-1 370-644, looked up) KDEKDHLIERLYREISGLKAQLENMKTESQRVVLQLKGHVSELEADLAEQQHLRQQAADDCEFLRAELDELRRQREDTEKAQRSLSEIERKAQANEQRYSKLKEKYSELVQNHADLLRKNAEVTKQVSMARQAQVDLEREKEELEDSLERISDQGQRKTQEQLEVLESLKQELATSQRELQVLQGSLETSAQSEANWAAEFAELEKERDSLVSGAAHREEELSALRKELQDTQLKLASTEESMCQLAKDQRKMLLVGSRKAAEQVIQDALNQLEE |
| – | binds | GST-HIP1h (aa370-644) R508E (domain or fragment, human, UniProt O00291-1 370-644, looked up) KDEKDHLIERLYREISGLKAQLENMKTESQRVVLQLKGHVSELEADLAEQQHLRQQAADDCEFLRAELDELRRQREDTEKAQRSLSEIERKAQANEQRYSKLKEKYSELVQNHADLLRKNAEVTKQVSMARQAQVDLEEEKKELEDSLERISDQGQRKTQEQLEVLESLKQELATSQRELQVLQGSLETSAQSEANWAAEFAELEKERDSLVSGAAHREEELSALRKELQDTQLKLASTEESMCQLAKDQRKMLLVGSRKAAEQVIQDALNQLEE |
| – | binds | GST-HIP1h (aa370-644) R500E (domain or fragment, human, UniProt O00291-1 370-644, looked up) KDEKDHLIERLYREISGLKAQLENMKTESQRVVLQLKGHVSELEADLAEQQHLRQQAADDCEFLRAELDELRRQREDTEKAQRSLSEIERKAQANEQRYSKLKEKYSELVQNHADLLRKNAEVTKQVSMAEQAQVDLEREKKELEDSLERISDQGQRKTQEQLEVLESLKQELATSQRELQVLQGSLETSAQSEANWAAEFAELEKERDSLVSGAAHREEELSALRKELQDTQLKLASTEESMCQLAKDQRKMLLVGSRKAAEQVIQDALNQLEE |
